Reference: publication PMC12806483, “Dual role of ramR mutation in enhancing immune activation and elevating eravacycline resistance in Klebsiella pneumoniae”

What was measured:
Experiment in all cases: EMSA; 2 uM protein, 200 nM DNA
Details in all cases: protein: recombinant; tags: N-terminal His6; chain copies: 2; label: none (NA-Green stain); blunt
RamR L58P = RamR L58P (Klebsiella pneumoniae, UniProt A0A0H3GJQ8 1-194, L58P)
RamR I141T = RamR I141T (Klebsiella pneumoniae, UniProt A0A0H3GJQ8 1-194, I141T)
RamR WT = RamR WT (Klebsiella pneumoniae, UniProt A0A0H3GJQ8 1-194)

B1: ramA promoter probe (ramA P-F/ramA P-R) (dsDNA)
DNA 1: AAAACGAATCGTCCTGCATGCCCAGGCAGCACCGCGCGAGCGCGCAGGTCGTCGGCAGCCTGAGCCGTTTCATCCGGCATCATGTGGATATATTTCCAGTC
DNA 2: GACTGGAAATATATCCACATGATGCCGGATGAAACGGCTCAGGCTGCCGACGACCTGCGCGCTCGCGCGGTGCTGCCTGGGCATGCAGGACGATTCGTTTT
Q: Does B1 bind (RamR L58P)?
A: Result: no binding

Q: Does B1 bind (RamR I141T)?
A: Result: binds

Q: Does B1 bind (RamR WT)?
A: Result: binds
